US20170275368A1 (Hoffmann-La Roche, published 2017)
Read-outs that look alike come from different tables or passages of the source.

Legend:
[1] = target: mutant CSF-1R L301S Y969F (human) (UniProt P07333); test: cell-based or functional assay
[2] = target: T1, full-length wildtype CSF-1R (wt CSF-1R) (human, UniProt P07333 20-972); test: cell-based or functional assay
[3] = target: CSF-1R (R&D-Systems Cat. No. 329-MR) (human) (UniProt P07333); test: SPR cross-competition at 25 C; response of Antibody 2 on CSF-1R held by captured Antibody 1; competitor SC-02, clone 2-4A5 (Antibody 1, same antibody)
Chain of CSF-1R (R&D-Systems Cat. No. 329-MR) (human) (P07333 20-517 limits assumed): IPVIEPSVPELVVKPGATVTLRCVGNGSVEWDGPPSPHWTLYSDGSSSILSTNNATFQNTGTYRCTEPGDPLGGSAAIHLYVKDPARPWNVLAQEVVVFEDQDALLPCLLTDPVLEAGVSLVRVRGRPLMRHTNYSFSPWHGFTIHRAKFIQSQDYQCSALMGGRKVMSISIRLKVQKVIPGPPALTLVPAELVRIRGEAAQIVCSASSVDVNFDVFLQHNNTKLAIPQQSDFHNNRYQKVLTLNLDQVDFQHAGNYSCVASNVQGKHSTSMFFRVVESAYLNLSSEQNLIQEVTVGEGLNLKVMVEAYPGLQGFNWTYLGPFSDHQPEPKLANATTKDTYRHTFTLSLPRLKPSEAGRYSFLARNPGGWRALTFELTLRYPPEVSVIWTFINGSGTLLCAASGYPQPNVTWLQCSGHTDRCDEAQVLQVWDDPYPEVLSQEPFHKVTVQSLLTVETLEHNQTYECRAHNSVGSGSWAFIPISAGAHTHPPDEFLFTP

[4] = target: CSF-1R ECD (R&D-Systems 329-MR or in-house subcloned pCMV-presS-HisAvitag-hCSF-1R-ECD) (human) (UniProt P07333); test: SPR (BIACORE A100) at 35 C; antibody captured, CSF-1R ECD in solution; Langmuir 1:1
Chain of CSF-1R ECD (R&D-Systems 329-MR or in-house subcloned pCMV-presS-HisAvitag-hCSF-1R-ECD) (human) (P07333 20-517 limits assumed): as above

[5] = target: CSF-1R (R&D-Systems Cat. No. 329-MR) (human) (UniProt P07333); test: SPR cross-competition at 25 C; response of Antibody 2 on CSF-1R held by captured Antibody 1; competitor <CSF-1R>7G5.3B6 (Antibody 1)
[6] = target: huCSF-1R-huFc chimera (soluble extracellular domain) (human) (UniProt P07333); test: competition ELISA: inhibition of CSF-1 binding to immobilised huCSF-1R-huFc chimera
Chain of huCSF-1R-huFc chimera (soluble extracellular domain) (human) (P07333 20-517, change not shown): as the sequence (P07333 20-517 limits assumed) above

[7] = target: T1, full-length wildtype CSF-1R (wt CSF-1R); test: cell-based or functional assay; remark: listed apart in the source
[8] = target: CSF-1R ECD (R&D-Systems 329-MR or in-house subcloned pCMV-presS-HisAvitag-hCSF-1R-ECD) (human, UniProt P07333 20-517); test: SPR (BIACORE A100) at 35 C; antibody captured by anti mouse Fc gamma, CSF-1R ECD in solution; Langmuir 1:1
Chain of CSF-1R ECD (R&D-Systems 329-MR or in-house subcloned pCMV-presS-HisAvitag-hCSF-1R-ECD) (P07333 20-517 limits assumed): as above
Method: CSF-1R ECD (R&D-Systems 329-MR or in-house subcloned pCMV-presS-HisAvitag-hCSF-1R-ECD were added in various concentrations in solution. Association was measured by an CSF-1R-injection of 1.5 minutes at 35° C.; dissociation was measured by washing the chip surface with buffer for 10 minutes at 35° C. Anti CSF-IR SC-02, clone 2-4A5 (Santa Cruz Biotechnology, US; see also Sherr, C. J., et al., Cell 41 (1985) 665-676), which inhibits the ligand-receptor interaction, was used as reference control.

[9] = target: T2, huCSF-1R-huFc chimera (soluble extracellular domain) (human, UniProt P07333 20-517); test: competition ELISA: inhibition of CSF-1 binding to immobilised huCSF-1R-huFc chimera
T2 construct: also called huCSF-1R ECDhuFc chimera; not shown: human Fc part
T2 sequence (P07333 20-517, change not shown): as the sequence (P07333 20-517 limits assumed) above
Method: At the beginning, plates were coated with […] goat F(ab′)₂ biotinylated anti Fcγ (Jackson ImmunoResearch., Cat. No. 109-006-170) for 1 hour (h).
Thereafter the wells were blocked with PBS supplemented with 0.2% TWEEN®-20 and 2% BSA (Roche Diagnostics GmbH, DE) for 0.5 h. 75 ng/ml of huCSF-1R-huFc chimera (soluble extracellular domain) was immobilized to plate for 1 h. Then dilutions of purified antibodies in PBS/0.05% Tween20/0.5% BSA were incubated for 1 h. After adding a mixture of 3 ng/ml CSF-1 (Biomol, DE, Cat. No. 60530), 50 ng/ml biotinylated anti CSF-1 clone BAF216 (R&D Systems, UK) and 1:5000 diluted streptavidin HRP (Roche Diagnostics GmbH, DE, Cat. No. 11089153001) for 1 h the plates were washed 6 times with PBST. Anti CSF-IR SC-02, clone 2-4A5 (Santa Cruz Biotechnology, ITS), which inhibits the ligand-receptor interaction, was used as positive control. Plates were developed with freshly prepared BM BLUE® POD substrate solution (BM BLUE®: 3,3′-5,5′-Tetramethylbenzidine, Roche Diagnostics GmbH, DE, Cat. No. 11484281001) for 30 minutes at RT. Absorbance was measured at 370 nm. […] Anti CSF-1R SC-02, clone 2-4A5 (Santa Cruz Biotechnology, US), which inhibits the ligand-receptor interaction, was used as reference control.

[10] = target: T1, full-length wildtype CSF-1R (wt CSF-1R); test: cell-based or functional assay; remark: listed apart in the source

T1 sequence (P07333 20-972 limits assumed): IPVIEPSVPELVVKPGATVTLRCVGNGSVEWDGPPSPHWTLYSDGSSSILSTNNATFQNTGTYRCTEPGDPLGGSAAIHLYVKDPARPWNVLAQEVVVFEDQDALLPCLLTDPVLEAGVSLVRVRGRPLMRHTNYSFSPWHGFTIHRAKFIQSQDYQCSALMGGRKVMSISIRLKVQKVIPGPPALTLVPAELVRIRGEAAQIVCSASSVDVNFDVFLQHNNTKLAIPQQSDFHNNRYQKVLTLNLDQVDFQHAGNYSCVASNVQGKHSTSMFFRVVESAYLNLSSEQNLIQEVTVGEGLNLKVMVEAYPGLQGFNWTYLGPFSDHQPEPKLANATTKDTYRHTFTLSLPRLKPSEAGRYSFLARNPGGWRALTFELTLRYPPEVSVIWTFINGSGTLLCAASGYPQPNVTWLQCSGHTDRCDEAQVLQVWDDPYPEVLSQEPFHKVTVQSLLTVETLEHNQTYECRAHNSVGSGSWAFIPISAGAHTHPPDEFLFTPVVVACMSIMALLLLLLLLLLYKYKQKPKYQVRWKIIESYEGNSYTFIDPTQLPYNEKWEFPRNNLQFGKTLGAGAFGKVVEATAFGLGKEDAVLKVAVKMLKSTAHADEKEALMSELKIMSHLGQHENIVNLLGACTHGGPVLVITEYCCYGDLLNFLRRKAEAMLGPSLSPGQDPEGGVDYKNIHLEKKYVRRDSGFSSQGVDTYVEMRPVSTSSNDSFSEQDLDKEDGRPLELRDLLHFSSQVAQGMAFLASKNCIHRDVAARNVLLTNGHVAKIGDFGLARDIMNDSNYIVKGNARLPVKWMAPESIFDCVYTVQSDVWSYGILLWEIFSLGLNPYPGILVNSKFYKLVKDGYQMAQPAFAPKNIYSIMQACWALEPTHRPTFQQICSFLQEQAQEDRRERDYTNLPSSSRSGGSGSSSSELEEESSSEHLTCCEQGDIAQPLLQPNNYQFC
Chain of mutant CSF-1R L301S Y969F (human) (P07333 20-972 L301S/Y969F limits assumed): as the sequence (P07333 20-972 limits assumed) above, with L282S, Y950F counted along it

Molecule: Anti CSF-1R SC-02, clone 2-4A5 (Santa Cruz Biotechnology) (antibody)
- % survival of NIH3T3 cells expressing mutant CSF-1R L301S Y969F, 10 ug/ml antibody (…-GLO) [1]: 66%
- % inhibition of CSF-1 induced growth of BeWo tumor cells, 10 ug/ml antibody concentration [2]: 40%
- % survival of NIH3T3 cells expressing wt CSF-1R, 10 ug/ml antibody (…-GLO) [2]: 62%
- IC50 CSF-1R Phosphorylation [2]: 412 ng/mL
- IC50 [nM] of inhibition of monocyte survival (…-GLO) [2]: 2.4 nM
- percentage (%) of expected binding response [3]: -2%
- Kd [4]: 2.73 nM
- koff [4]: 0.00139 s⁻¹
- kon [4]: 509000 M⁻¹ s⁻¹
- t1/2 [4]: 8.31 min
- percentage (%) of expected binding response [5]: 36%
- IC50 [6]: 0.0309 µg/mL

B1: <CSF-1R>7G5.3B6 (antibody, V domains shown)
VH: EIQLQQSGPELVKPGASVRVSCKPSGYSFTDYNMYWVRQSHGKSLDWIGYIDPYNGGTTYNQKFRGKATLTVDKSSSTAFMHLNSLTSEDSAVYYCARGGDEYYFDYWGQGTTLTVSS
VL: DIVMSQSPSSLAVSVGEKVTMSCKSSQSLLDSRNQKNYLAWYQQKPGQSPKLLIYWASTRESGVPDRFTGSGSGTDFTLTISSVKAEDLAVYYCQQYYSYPPTFGGGTKLEIKR
notes: Mouse monoclonal antibody from hybridoma DSM ACC2921 (NMRI mice), tested as purified hybridoma antibody; also called deposited antibody DSM ACC2921
- IC50 [nM] of inhibition of monocyte survival (…-GLO) [7]: 0.4 nM
- Kd [8]: 0.61 nM
- koff [8]: 0.0049 s⁻¹
- kon [8]: 8e+06 M⁻¹ s⁻¹
- t1/2 [8]: 2.37 min
- IC50 [9]: 0.0188 µg/mL
- IC50 CSF-1R Phosphorylation [10]: < 11 ng/mL
